Data on one protein can be found in patent US7608407B2, “Fluorescence polarization assay for determining histidine decarboxylase activity” (Boehringer Ingelheim Pharmaceuticals, Inc., priority 2004, dated 2009).

Substrate in this data set: N[C@@H](Cc1c[nH]cn1)C(=O)O
Nature of the data set: Km of HDC for its substrate histidine. The class given is biochemical, human. To be noted: other: 54 Kd form, data not shown.

B1: HDC (54 Kd form) (Homo sapiens; S148Q) (protein)
chain: MMEPEEYRERGREMVDYICQYLSTVRERRVTPDVQPGYLRAQLPESAPEDPDSWDSIFGDIERIIMPGVVHWQSPHMHAYYPALTSWPSLLGDMLADAINCLGFTWASSPACTELEMNVMDWLAKMLGLPEHFLHHHPSSQGGGVLQQTVSESTLIALLAARKNKILEMKTSEPDADESCLNARLVAYASDQAHSSVEKAGLISLVKMKFLPVDDNFSLRGEALQKAIEEDKQRGLVPVFVCATLGTTGVCAFDCLSELGPICAREGLWLHIDAAYAGTAFLCPEFRGFLKGIEYADSFTFNPSKWMMVHFDCTGFWVKDKYKLQQTFSVNPIYLRHANSGVATDFMHWQIPLSRRFRSVKLWFVIRSFGVKNLQAHVRHGTEMAKYFESLVRNDPSFEIPAKRHLGLVVFRLKGPNCLTENVLKEIAKAGRLFLIPATIQDKLIIRFTVTSQFTTRDDILRDWNLIRDAATLILSQ
Take B1: the Km is 275 µM.
